Two substances from patent EP4707393A1, “DOUBLE-STRANDED SIRNA, CONJUGATE THEREOF AND USE THEREOF” (CMS Research & Development Pte. Ltd., priority 2023, dated 2024) can be followed below.

One series relates to LPA mRNA. The experiment in a line: In vivo efficacy in LPA-HDI mouse model (liver LPA mRNA). Details: species or system BALB/c mouse. The following applies: 3 mg/kg single subcutaneous injection, Day 14, relative to PBS blank group, 4 mice per group. The protocol:
The knockdown effect of the test double-stranded siRNA conjugate on the target gene LPA upon entry into the mouse is evaluated by rapid high-pressure injection of the physiological saline containing recombinant plasmid pcDNA-LPA carrying the target gene via the tail vein.
pcDNA-LPA plasmid, BALB/c mouse, PBS (phosphate buffer), and conjugates of the present invention.
Six-week-old female BALB/c mice were ordered and acclimated/quarantined for three days upon arrival in the animal room.
On Day 0, the mice were randomly grouped based on body weight data. After grouping, all mice were given a single administration via subcutaneous injection, with a dose volume of 10 mL/kg. Mice in Group 1 received PBS; mice in the other groups received the conjugates (dissolved in PBS).
On Day 13 post-administration, all mice were injected with normal saline containing the pcDNA-LPA plasmid via the tail vein within 5 seconds. The injection volume (mL) = mouse body weight (g) × 8%. The amount of plasmid injected per mouse was 10 µg.
On Day 14 post-administration, all groups of mice were euthanized by CO2 inhalation, and 2 liver samples were collected from each mouse. Liver samples were treated overnight with RNAlater at 4 °C, then RNAlater was removed, and stored at -80 °C for detection of LPA gene expression levels.

Another series has as its system PHH cells. The series can be described thus: Off-target assessment by RNA-sequencing in PHH cells. Type of series: cell-based. The following applies: vs PBS, 48 hours; for Downregulated differential genes / Total differential genes / Upregulated differential genes: DESeq2 padj ≤ 0.05 |log2FoldChange| ≥ 1.0. As for the experimental part: • 1.1 Double-stranded siRNA conjugates • 1.2 PHH cells, purchased from Research Institute for Liver Diseases(Shanghai)Co. Ltd. • 1.3 Main reagents: InvitroGRO CP Medium (Cat. No.: BIOIVT-S03316), Fetal Bovine Serum (Cat. No.: ExCellBio-FSP500), Penicillin-Streptomycin (Cat. No.: Hyclone-SV30010), TRLzol Reagent (Cat. No.: Ambion-15596018).
The cryopreserved PHH was taken from the liquid nitrogen and thawed in a water bath at 37 °C. The fully thawed PHH was transferred to a 10% FBS InvitrogRO CP medium and blended well, and counted using a counter. The cell density was adjusted to 6 × 10^5 cells/mL.
siRNAs were diluted with RNase-free PBS to 10 times the final concentration (for example, diluted to 1000 nM if the test concentration is 100 nM). The diluted siRNAs were then added to a collagen-coated 12-well plate at 100 µL/well, with 1 concentration point, 3 replicated wells, and blank PBS as the negative control group. PHH cells at a density of 6 × 10^5 cells/mL were added to the collagen-coated 12-well plate at 900 µL/well. The final concentrations of the test compounds were […]. The cell plates were incubated in a 5% CO2, 37 ° C incubator for 48 hours. After 48 hours, the medium was removed, 600µL of Trizol was added per well to lyse the cells, and sent to Beijing Novogene Co., Ltd. for RNA-sequencing.
NEB Standard Library Preparation: Fragmented mRNAs were used as a template and random oligonucleotides as primers. The first strand of cDNA was synthesized in an M-MuLV reverse transcriptase system. The RNA strand was then degraded with RNaseH, and the second strand of cDNA was synthesized using a DNA polymerase I system with dNTPs as raw materials. The purified double-stranded cDNA underwent end repair, A-tailing, and adapter ligation for sequencing. The cDNA of approximately 250-300 bp was screened out by AMPure XP beads, PCR amplified, and the PCR product was purified again by AMPure XP beads to finally obtain the library. The kit used for library construction was NEBNext® Ultra ™ RNA Library Prep Kit for Illumina.
After the library construction, quantification was primarily performed using a Qubit2.0 Fluorometer, and the library was diluted to 1.5 ng/µL. The insert size of the library was then detected using an Agilent 2100 bioanalyzer. If the insert size meets expectations, the effective concentration of the library was accurately quantified by qRT-PCR (an effective concentration of the library higher than 2nM) to ensure the quality of the library.
After passing quality control of the library, different libraries were pooled according to the effective concentration and target output data volume for Illumina sequencing. The basic principle of sequencing is Sequencing by Synthesis. Four fluorescently labeled dNTPs, DNA polymerase, and adapter primers were added to the sequencing flow cell for amplification. As each sequencing cluster extends the complementary strand, the incorporation of each fluorescently labeled dNTP can release the corresponding fluorescence. The sequencer captures the fluorescence signal and converts the optical signals into sequencing peaks through computer software, thereby obtaining the sequence information of the test fragments.
Experimental results were obtained through software analysis
Differential gene analysis takes DESeq2 padj ≤ 0.05 |log2FoldChange| ≥ 1.0 as the threshold. Table 8. Differential gene statistics

In the case of “Z42: siRNA conjugate: sense SEQ ID NO:49, ligand D01 at 3' end of sense strand, antisense SEQ ID NO:80 (sense CAGCCCCTTATTGTTATACGA; antisense NCGTATNACAATAAGGGGCNGTT; ligand D01 at sense 3' end; listed as RNA; modified_base 1: mod_base = OTHER; note = 2'-O-methylcytidine; modified_base 2: mod_base = OTHER; note = 2'-O-methyladenosine; modified_base 3: mod_base = OTHER; note = 2'-O-methylguanosine; modified_base 4..7: mod_base = OTHER; note = 2'-O-me; note = n is B33; note = 2'-deoxycytidine; modified_base 4: mod_base = OTHER; note = 2'-O-methyluridine; m)”, in the series on LPA mRNA, the “% Downregulation of LPA mRNA” value came out at 78.0%. In the series on PHH cells, this substance yielded a Maximum up-regulation folds of 1.9, a Downregulated differential genes of 0, a Total differential genes of 4 and an Upregulated differential genes of 4.

With “Z46: siRNA conjugate: sense SEQ ID NO:43, ligand D01 at 3' end of sense strand, antisense SEQ ID NO:66 (sense CAGCCCCTTATTGTTANACGA; antisense TCTCGTATNACAATAAGGGGCTG; ligand D01 at sense 3' end; listed as RNA; modified_base 1: mod_base = OTHER; note = 2'-O-methylcytidine; modified_base 2: mod_base = OTHER; note = 2'-O-methyladenosine; modified_base 3: mod_base = OTHER; note = 2'-O-methylguanosine; modified_base 4..7: mod_base = OTHER; note = 2'-O-me; note = 2'-O-methyluridine; modified_base 4: mod_base = OTHER; note = 2'-fluorocytidine; modified_base 5: mod_base = OTHER; note = 2'-O-methylg)”, in the series on LPA mRNA, the “% Downregulation of LPA mRNA” value is 89.0%. In the series with PHH cells, this substance returned a Downregulated differential genes of 0, a Total differential genes of 0 and an Upregulated differential genes of 0.
